Measurements taken from publication PMC9645730, “Cryo-EM structure of the human sodium-chloride cotransporter NCC” (Science Advances, 2022).

Target: the molecule itself
Assay: cryo-EM structure; single-particle analysis of purified NCC at 9 mg/ml in 25 mM tris (pH 8.0), 150 mM NaCl, 0.02% GDN; TMD map with C2 symmetry, overall map with C1 symmetry

B1: human sodium-chloride cotransporter NCC (natural protein, UniProt P55017-1 1-1021, looked up)
chain: MAELPTTETPGDATLCSGRFTISTLLSSDEPSPPAAYDSSHPSHLTHSSTFCMRTFGYNTIDVVPTYEHYANSTQPGEPRKVRPTLADLHSFLKEGRHLHALAFDSRPSHEMTDGLVEGEAGTSSEKNPEEPVRFGWVKGVMIRCMLNIWGVILYLRLPWITAQAGIVLTWIIILLSVTVTSITGLSISAISTNGKVKSGGTYFLISRSLGPELGGSIGLIFAFANAVGVAMHTVGFAETVRDLLQEYGAPIVDPINDIRIIGVVSVTVLLAISLAGMEWESKAQVLFFLVIMVSFANYLVGTLIPPSEDKASKGFFSYRADIFVQNLVPDWRGPDGTFFGMFSIFFPSATGILAGANISGDLKDPAIAIPKGTLMAIFWTTISYLAISATIGSCVVRDASGVLNDTVTPGWGACEGLACSYGWNFTECTQQHSCHYGLINYYQTMSMVSGFAPLITAGIFGATLSSALACLVSAAKVFQCLCEDQLYPLIGFFGKGYGKNKEPVRGYLLAYAIAVAFIIIAELNTIAPIISNFFLCSYALINFSCFHASITNSPGWRPSFQYYNKWAALFGAIISVVIMFLLTWWAALIAIGVVLFLLLYVIYKKPEVNWGSSVQAGSYNLALSYSVGLNEVEDHIKNYRPQCLVLTGPPNFRPALVDFVGTFTRNLSLMICGHVLIGPHKQRMPELQLIANGHTKWLNKRKIKAFYSDVIAEDLRRGVQILMQAAGLGRMKPNILVVGFKKNWQSAHPATVEDYIGILHDAFDFNYGVCVMRMREGLNVSKMMQAHINPVFDPAEDGKEASARVDPKALVKEEQATTIFQSEQGKKTIDIYWLFDDGGLTLLIPYLLGRKRRWSKCKIRVFVGGQINRMDQERKAIISLLSKFRLGFHEVHILPDINQNPRAEHTKRFEDMIAPFRLNDGFKDEATVNEMRRDCPWKISDEEITKNRVKSLRQVRLNEIVLDYSRDAALIVITLPIGRKGKCPSSLYMAWLETLSQDLRPPVILIRGNQENVLTFYCQ
modifications: N-acetylglucosamine on Asn406 and Asn426; disulfide bonds Cys416-Cys421 and Cys430-Cys436
notes: human NCC (SLC12A3), cloned from HEK293 cDNA; an isoform that, compared with UniProt P55017-1, carries the naturally occurring A264G and lacks Gln95; residue numbers count on P55017-1; The atomic model holds residues 137-605 (TMD) and 616-1020 (CTD, docked as a rigid body from a SWISS-MODEL prediction); No cleavage of the tags is told; also called Na+-Cl- cotransporter; SLC12A3; not shown: FLAG, …
stoichiometry N: 2
